The values below come from paper PMC6800521 (RNA, 2019).

The target in this experiment is MBP-Noc1/Noc2 complex (yeast, UniProt Q12176 1-1025; P39744 1-710). In words: pull-down.
Chain of MBP-Noc1/Noc2 complex (Q12176 whole entry, chain 1 of 2): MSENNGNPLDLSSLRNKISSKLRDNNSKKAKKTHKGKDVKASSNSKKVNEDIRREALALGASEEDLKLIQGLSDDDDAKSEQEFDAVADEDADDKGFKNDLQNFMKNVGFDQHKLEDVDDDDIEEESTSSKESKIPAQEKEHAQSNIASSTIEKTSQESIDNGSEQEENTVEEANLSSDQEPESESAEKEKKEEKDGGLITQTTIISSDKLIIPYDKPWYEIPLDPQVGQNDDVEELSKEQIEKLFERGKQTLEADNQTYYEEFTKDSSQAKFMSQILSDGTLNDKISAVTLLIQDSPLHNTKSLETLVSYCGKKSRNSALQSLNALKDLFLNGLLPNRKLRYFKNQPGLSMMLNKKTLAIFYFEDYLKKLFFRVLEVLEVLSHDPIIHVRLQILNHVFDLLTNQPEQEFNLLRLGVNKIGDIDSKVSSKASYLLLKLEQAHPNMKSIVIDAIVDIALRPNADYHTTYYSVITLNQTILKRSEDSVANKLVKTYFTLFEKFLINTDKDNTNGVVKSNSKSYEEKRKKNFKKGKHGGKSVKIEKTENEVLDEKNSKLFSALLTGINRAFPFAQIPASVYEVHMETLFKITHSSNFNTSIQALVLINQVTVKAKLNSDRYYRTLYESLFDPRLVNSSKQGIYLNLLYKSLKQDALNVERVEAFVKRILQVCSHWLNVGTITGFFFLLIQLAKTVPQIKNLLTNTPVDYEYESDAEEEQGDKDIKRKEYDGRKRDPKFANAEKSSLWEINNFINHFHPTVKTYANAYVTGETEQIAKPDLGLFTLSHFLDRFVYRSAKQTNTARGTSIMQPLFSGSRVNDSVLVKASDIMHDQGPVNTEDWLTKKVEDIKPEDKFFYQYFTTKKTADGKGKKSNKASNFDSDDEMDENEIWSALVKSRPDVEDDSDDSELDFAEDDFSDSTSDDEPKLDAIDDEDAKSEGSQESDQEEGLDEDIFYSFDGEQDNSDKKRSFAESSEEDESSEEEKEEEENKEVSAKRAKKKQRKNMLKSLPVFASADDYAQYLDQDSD
Chain of MBP-Noc1/Noc2 complex (P39744 whole entry, chain 2 of 2): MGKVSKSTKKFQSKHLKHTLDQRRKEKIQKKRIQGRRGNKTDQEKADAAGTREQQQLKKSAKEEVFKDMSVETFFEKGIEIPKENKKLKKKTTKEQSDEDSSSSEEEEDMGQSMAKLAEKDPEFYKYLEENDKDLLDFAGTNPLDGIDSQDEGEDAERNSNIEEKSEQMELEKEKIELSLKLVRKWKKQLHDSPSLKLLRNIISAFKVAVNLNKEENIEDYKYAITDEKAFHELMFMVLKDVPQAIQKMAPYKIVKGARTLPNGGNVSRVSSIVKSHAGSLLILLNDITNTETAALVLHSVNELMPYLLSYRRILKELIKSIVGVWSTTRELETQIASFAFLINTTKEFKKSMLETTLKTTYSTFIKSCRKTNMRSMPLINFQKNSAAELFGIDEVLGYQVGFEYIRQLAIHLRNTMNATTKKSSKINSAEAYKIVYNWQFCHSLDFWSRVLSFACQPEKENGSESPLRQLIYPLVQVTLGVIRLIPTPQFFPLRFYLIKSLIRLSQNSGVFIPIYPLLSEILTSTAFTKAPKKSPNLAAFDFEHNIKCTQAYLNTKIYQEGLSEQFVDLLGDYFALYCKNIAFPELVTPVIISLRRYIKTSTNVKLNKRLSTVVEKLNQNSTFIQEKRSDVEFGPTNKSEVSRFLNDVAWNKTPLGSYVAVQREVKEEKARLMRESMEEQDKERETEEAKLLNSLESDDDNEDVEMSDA

B1: Rrp5 full length (natural protein, yeast, UniProt Q05022 1-1729, looked up)
chain: MVASTKRKRDEDFPLSREDSTKQPSTSSLVRNTEEVSFPRGGASALTPLELKQVANEAASDVLFGNESVKASEPASRPLKKKKTTKKSTSKDSEASSANSDEARAGLIEHVNFKTLKNGSSLLGQISAITKQDLCITFTDGISGYVNLTHISEEFTSILEDLDEDMDSDTDAADEKKSKVEDAEYESSDDEDEKLDKSNELPNLRRYFHIGQWLRCSVIKNTSLEPSTKKSKKKRIELTIEPSSVNIYADEDLVKSTSIQCAVKSIEDHGATLDVGLPGFTGFIAKKDFGNFEKLLPGAVFLGNITKKSDRSIVVNTDFSDKKNKITQISSIDAIIPGQIVDLLCESITKNGIAGKVFGLVSGVVNVSHLRTFSEEDLKHKFVIGSSIRCRIIACLENKSGDKVLILSNLPHILKLEDALRSTEGLDAFPIGYTFESCSIKGRDSEYLYLALDDDRLGKVHSSRVGEIENSENLSSRVLGYSPVDDIYQLSTDPKYLKLKYLRTNDIPIGELLPSCEITSVSSSGIELKIFNGQFKASVPPLHISDTRLVYPERKFKIGSKVKGRVISVNSRGNVHVTLKKSLVNIEDNELPLVSTYENAKNIKEKNEKTLATIQVFKPNGCIISFFGGLSGFLPNSEISEVFVKRPEEHLRLGQTVIVKLLDVDADRRRIIATCKVSNEQAAQQKDTIENIVPGRTIITVHVIEKTKDSVIVEIPDVGLRGVIYVGHLSDSRIEQNRAQLKKLRIGTELTGLVIDKDTRTRVFNMSLKSSLIKDAKKETLPLTYDDVKDLNKDVPMHAYIKSISDKGLFVAFNGKFIGLVLPSYAVDSRDIDISKAFYINQSVTVYLLRTDDKNQKFLLSLKAPKVKEEKKKVESNIEDPVDSSIKSWDDLSIGSIVKAKIKSVKKNQLNVILAANLHGRVDIAEVFDTYEEITDKKQPLSNYKKDDVIKVKIIGNHDVKSHKFLPITHKISKASVLELSMKPSELKSKEVHTKSLEEINIGQELTGFVNNSSGNHLWLTISPVLKARISLLDLADNDSNFSENIESVFPLGSALQVKVASIDREHGFVNAIGKSHVDINMSTIKVGDELPGRVLKIAEKYVLLDLGNKVTGISFITDALNDFSLTLKEAFEDKINNVIPTTVLSVDEQNKKIELSLRPATAKTRSIKSHEDLKQGEIVDGIVKNVNDKGIFVYLSRKVEAFVPVSKLSDSYLKEWKKFYKPMQYVLGKVVTCDEDSRISLTLRESEINGDLKVLKTYSDIKAGDVFEGTIKSVTDFGVFVKLDNTVNVTGLAHITEIADKKPEDLSALFGVGDRVKAIVLKTNPEKKQISLSLKASHFSKEAELASTTTTTTTVDQLEKEDEDEVMADAGFNDSDSESDIGDQNTEVADRKPETSSDGLSLSAGFDWTASILDQAQEEEESDQDQEDFTENKKHKHKRRKENVVQDKTIDINTRAPESVADFERLLIGNPNSSVVWMNYMAFQLQLSEIEKARELAERALKTINFREEAEKLNIWIAMLNLENTFGTEETLEEVFSRACQYMDSYTIHTKLLGIYEISEKFDKAAELFKATAKKFGGEKVSIWVSWGDFLISHNEEQEARTILGNALKALPKRNHIEVVRKFAQLEFAKGDPERGRSLFEGLVADAPKRIDLWNVYVDQEVKAKDKKKVEDLFERIITKKITRKQAKFFFNKWLQFEESEGDEKTIEYVKAKATEYVASHESQKADE
In the case of B1, the binding result is given as “binds”.
